Measurements taken from the supplement of paper PMC12764529.
± gives the half width of the 95% confidence interval.

How the values were obtained:
[1] = folding stability dG unfold from trypsin proteolysis; higher = more stable
Procedure, shortened: (§1)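 Designed mini-proteins with no cysteine and under 80 residues were kept only if AlphaFold2 dimer inter-PAE was above 15. In a PA-tagged cDNA display construct, they were digested with trypsin and chymotrypsin and then sequenced. K50 was inferred by Bayesian fitting of counts, and unfolding free energy was derived per protease or combined against a sequence-predicted unfolded-state K50 and a shared folded-state K50.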

[2] = folding stability dG unfold from chymotrypsin proteolysis; higher = more stable
Procedure, shortened: as §1

[3] = folding stability dG unfold (combined trypsin and chymotrypsin); higher = more stable
Procedure, shortened: as §1

For “SAGGMPLEHIAEITEVRTFPDGRKEIRLLVEDPEVAEEGHPELREEMAELLRRLFEEEGLEVRVVPGESAGG [r13_243_TrMRF]”, which “folding stability dG unfold” value [1] is on record?
Its value is 0.0715 ± 0.19 kcal/mol.

What about the “folding stability dG unfold” value [2] of the same sequence?
Its value is 0.187 ± 0.18 kcal/mol.

And the “folding stability dG unfold” value [3]?
Its value is 0.2 ± 0.19 kcal/mol.

What does the source list for “SAGGMPLGITITETVTPTPDGSVVVTLTVSLPPDEPLTITFPISGETVSFPPDETITLKVTVPPGLSSAGGS [r16_56_JUSTAS]”?
folding stability dG unfold [1]: 1.7 ± 0.09 kcal/mol; folding stability dG unfold [2]: 0.953 ± 0.034 kcal/mol; folding stability dG unfold [3]: 1.4 ± 0.093 kcal/mol

Which “folding stability dG unfold” value [1] does the source give for “SAGGMPLPDEKVNITITINYTLPGGKPKTITIPATNWTVEEANEKKKKVEEELKKVPPDPVEKDGKLLSAGG [r13_330_JUSTAS]” here?
Its value is -0.745 ± 0.19 kcal/mol.

What about the “folding stability dG unfold” value [2] of the same sequence?
Its value is -0.281 ± 0.24 kcal/mol.

What about the “folding stability dG unfold” value [3] of the same sequence?
The value was -0.354 ± 0.21 kcal/mol.

What does the source list for “SAGGMPLPFRITQWDPNTGKPVATFPAVYDPETGLVVITPPDGSKEVFDAPLEEIVEALPSNWTVEPSAGGS [r16_543_TrMRF]”?
folding stability dG unfold [1]: 0.121 ± 0.096 kcal/mol; folding stability dG unfold [2]: -0.0752 ± 0.48 kcal/mol; folding stability dG unfold [3]: 0.083 ± 0.16 kcal/mol

Which results are given for “SAGGMPLRFRIEVYKTETYYDPSTGKEVTKVEPLPELEIEAPPNTPLEAILAALDLPEDYYISRIGVESAGG [r13_716_TrMRF]”?
folding stability dG unfold [1]: 2.06 ± 0.065 kcal/mol; folding stability dG unfold [2]: 2.55 ± 0.026 kcal/mol; folding stability dG unfold [3]: 2.43 ± 0.049 kcal/mol

With “SAGGMPPENPAVVKVLAQKQKFEDLVKELKEKGIEAKLEKIEVVPETGKVTVTIKLPDGKEIVITIESAGGS [r8_277_JUSTAS]” as the sequence, how does the “folding stability dG unfold” value [1] read?
The value was 1.62 ± 0.11 kcal/mol.

What about the “folding stability dG unfold” value [2] of the same sequence?
The value was 1.16 ± 0.064 kcal/mol.

What about the “folding stability dG unfold” value [3] of the same sequence?
Its value is 1.33 ± 0.21 kcal/mol.

Which results are given for “SAGGMPPVVTEHTVELNPPASATLEDVRAAAEEVAAAIRAAAPEAGVAEVTFTVDPSRGTVTITVTRPSAGG [r13_1011_JUSTAS]”?
folding stability dG unfold [1]: 0.985 ± 0.018 kcal/mol; folding stability dG unfold [2]: -0.925 ± 0.15 kcal/mol; folding stability dG unfold [3]: 0.442 ± 0.043 kcal/mol

Which “folding stability dG unfold” value [1] does the source give for “SAGGMPTYTITITSPETGELKELPPNISQTFDPNNVTYYTFTSEEEAKEAIKLIAPQNGWKVTITSSSAGGS [r8_131_JUSTAS]” here?
The value was 1.37 ± 0.22 kcal/mol.

And the “folding stability dG unfold” value [2]?
The value was -0.14 ± 0.52 kcal/mol.

What about the “folding stability dG unfold” value [3] of the same sequence?
The value was 0.89 ± 0.35 kcal/mol.

What does the source list for “SAGGMPVGVARVRTEAGDKVLEFTVEVPADVGAVEIRVKLKPDPLTGEPVVEEILEVRTYRAPPDVELSAGG [r13_568_TrMRF]”?
folding stability dG unfold [1]: 0.84 ± 0.047 kcal/mol; folding stability dG unfold [2]: 0.837 ± 0.075 kcal/mol; folding stability dG unfold [3]: 0.887 ± 0.055 kcal/mol

Which results are given for “SAGGMPVLEREFTIPLPDGTPLRVTVRYFPGTGRALVTLRPVGTGEPLATVPLSELPPELRAALAEESAGGS [r8_32_TrMRF]”?
folding stability dG unfold [1]: 2.42 ± 0.063 kcal/mol; folding stability dG unfold [2]: 3.102 ± 0.026 kcal/mol; folding stability dG unfold [3]: 2.9 ± 0.052 kcal/mol

With “SAGGMPVPVKIEIIDDPGTLIITTPNGKPYTIPIPPNSIEEITIDPEKKVIKIKLKDGEIIIDVPDGSAGGS [r16_104_TrMRF]” as the sequence, how does the “folding stability dG unfold” value [1] read?
Its value is 1.62 ± 0.072 kcal/mol.

What about the “folding stability dG unfold” value [2] of the same sequence?
The value was 1.87 ± 0.038 kcal/mol.

And the “folding stability dG unfold” value [3]?
The value was 1.88 ± 0.11 kcal/mol.

Which results are given for “SAGGMPVVIEIHVPKDKEEELARLIRRLLSELGAEVRVERFEDGIKVTAVLPDGTVIELHIVDDEKASAGGS [r16_406_TrMRF]”?
folding stability dG unfold [1]: 4.29 ± 0.21 kcal/mol; folding stability dG unfold [2]: 4.03 ± 0.17 kcal/mol; folding stability dG unfold [3]: 4.24 ± 0.19 kcal/mol

Which “folding stability dG unfold” value [1] does the source give for “SAGGMQKAIDIAKELGWKILDVDPEKKVVKVKPPDSDVEVTITVDDESTVTITTKNPGSDVVETIPESAGGS [r16_197_JUSTAS]” here?
The value was 1.38 ± 0.091 kcal/mol.

And the “folding stability dG unfold” value [2]?
Its value is 1.47 ± 0.056 kcal/mol.

What about the “folding stability dG unfold” value [3] of the same sequence?
Its value is 1.4 ± 0.16 kcal/mol.

Which “folding stability dG unfold” value [1] does the source give for “SAGGMRIEVEIEEVRELPDGRLVFRVRARIELKVRVLERDENGRWRELPEEEVTVELEVEVEVFLPPSAGGS [r16_693_TrROS_Hall]” here?
Its value is 3.97 ± 0.19 kcal/mol.

And the “folding stability dG unfold” value [2]?
The value was 5.08 ± 0.21 kcal/mol.

What about the “folding stability dG unfold” value [3] of the same sequence?
Its value is 4.75 ± 0.3 kcal/mol.

For “SAGGMRVERSTSPSGEPVLLITLYLPDGTRVAEAPLRLDPARGGLTEEELEAVLKEIDLPEDVEVELRSAGG [r13_479_JUSTAS]”, which “folding stability dG unfold” value [1] is on record?
The value was 0.517 ± 0.11 kcal/mol.

And the “folding stability dG unfold” value [2]?
The value was 0.468 ± 0.16 kcal/mol.

And the “folding stability dG unfold” value [3]?
The value was 0.482 ± 0.14 kcal/mol.

With “SAGGMSEALLADPTVEKVELFPSPGVTVYYRPETGTWLIQPPDGSVEEIKMTPEELEKLIADGLKPASAGGS [r16_745_JUSTAS]” as the sequence, how does the “folding stability dG unfold” value [1] read?
The value was 0.839 ± 0.11 kcal/mol.

And the “folding stability dG unfold” value [2]?
The value was 0.588 ± 0.23 kcal/mol.

And the “folding stability dG unfold” value [3]?
The value was 0.923 ± 0.1 kcal/mol.

For “SAGGMSIEELLKEAGYEVTVEEEEVDGKLRLKITIKANGKTLVIEVPESDAEEVLREIAKALGLEPESAGGS [r8_226_TrROS_Hall]”, which “folding stability dG unfold” value [1] is on record?
Its value is 4.2 ± 0.42 kcal/mol.

And the “folding stability dG unfold” value [2]?
Its value is 3.01 ± 0.047 kcal/mol.

What about the “folding stability dG unfold” value [3] of the same sequence?
Its value is 3.53 ± 0.18 kcal/mol.

With “SAGGMSITLTPDDGSTLTIPLSDPTLSLEEVVQMVVDKQEGAVNIQVTITFPDSEVTKTYTIPSPGGSAGGS [r16_216_JUSTAS]” as the sequence, how does the “folding stability dG unfold” value [1] read?
The value was 0.846 ± 0.041 kcal/mol.

What about the “folding stability dG unfold” value [2] of the same sequence?
The value was 0.275 ± 0.13 kcal/mol.

What about the “folding stability dG unfold” value [3] of the same sequence?
The value was 0.605 ± 0.13 kcal/mol.
